Assay results: CN116745314A

Target: spike glycoprotein of live SARS-CoV-2 (isolate USA-WA1/2020) (SARS-CoV-2) (UniProt P0DTC2)
Assay: cell-based or functional assay

## S2D106-LS (antibody)
  EC50 (live SARS-CoV-2-luc neutralisation, MOI 0.1, 6 h): 6 ng/mL
  EC90 (live SARS-CoV-2-luc neutralisation, MOI 0.1, 6 h): 22 ng/mL
  IC50 (live SARS-CoV-2-luc neutralisation, MOI 0.1, 6 h): 4.49 ng/mL
